Drawing on patent US20230365685A1, this text covers inhibit percentage for 2 molecules.

Assay [1] deals with biotinylated human TIM-3 (human) (UniProt Q8TDQ0). The assay is described as follows: competition ELISA: antibody coated, biotinylated human TIM-3 preincubated with competitor CH 11#.
Assay [2] has the same target. Nature of the assay: competition ELISA: antibody coated, biotinylated human TIM-3 preincubated with competitor 16H1. In general terms: In an ELISA, binding on a coated surface is turned into a signal by an enzyme label.
Assay [3] shares this target. Nature of the assay: competition ELISA: antibody coated, biotinylated human TIM-3 preincubated with competitor 3E6.
For assay [4] the target is unchanged. The assay is described as follows: competition ELISA: antibody coated, biotinylated human TIM-3 preincubated with competitor 19D11.
The target is the same in assay [5]. Nature of the assay: competition ELISA: antibody coated, biotinylated human TIM-3 preincubated with competitor CH 10#.
For assay [6] the target is unchanged. Nature of the assay: competition ELISA: antibody coated, biotinylated human TIM-3 preincubated with competitor 4H2.
Assay [7] shares this target. Nature of the assay: competition ELISA: antibody coated, biotinylated human TIM-3 preincubated with competitor MBG453.
Assay [8] has the same target. The assay is described as follows: competition ELISA: antibody coated, biotinylated human TIM-3 preincubated with competitor TSR022.

B1: MBG453 (antibody, INN chains, looked up, V domains shown)
VH: QVQLVQSGAEVKKPGSSVKVSCKASGYTFTSYNMHWVRQAPGQGLEWMGDIYPGNGDTSYNQKFKGRVTITADKSTSTVYMELSSLRSEDTAVYYCARVGGAFPMDYWGQGTTVTVSS
VL: AIQLTQSPSSLSASVGDRVTITCRASESVEYYGTSLMQWYQQKPGKAPKLLIYAASNVESGVPSRFSGSGSGTDFTLTISSLQPEDFATYFCQQSRKDPSTFGGGTKVEIKR
On to B1, for which the inhibit percentage in assay [1] was 8.29%; in assay [2] it was 99.2%; in assay [3], 94.3%; in assay [4], 4.39%; in assay [5], 15.8%; in assay [6] it was 95.9%. Also, the results for the inhibit percentage in assay [7] and in assay [8] were 100% and 94.8%, respectively.

B2: TSR022 (antibody, INN chains, looked up, V domains shown)
VH: EVQLLESGGGLVQPGGSLRLSCAAASGFTFSSYDMSWVRQAPGKGLDWVSTISGGGTYTYYQDSVKGRFTISRDNSKNTLYLQMNSLRAEDTAVYYCASMDYWGQGTTVTVSS
VL: DIQMTQSPSSLSASVGDRVTITCRASQSIRRYLNWYHQKPGKAPKLLIYGASTLQSGVPSRFSGSGSGTDFTLTISSLQPEDFAVYYCQQSHSAPLTFGGGTKVEIK
Regarding B2, the inhibit percentage in assay [1] is 0%; in assay [2], 70.2%; in assay [3] it was 95.8%; in assay [4] it was 0%; in assay [5], 40.5%; in assay [6], 98.1%. Also, the inhibit percentage was 99.1% in assay [7] and 100% in assay [8].
